Residue numbers refer to the chain shown, from its start. Positions of bridges follow the written chain, without caps; N, C: chain ends. No end group written: not given here.
B1: murine 8A9 antibody (antibody, V domains shown)
VH: QVQLKESGPGLVAPSQSLSITCTVSGFSLTNYAVHWVRQPPGKGLEWLGVIWSGGNTNYNSALMSRLRISKDNSQSQVFLKMNSLQTDDTGMYYCARDRGYYGGIYGFANWGQGTLVTVSS
VL: DIQMTQSPSSLSASLGKRVSLTCRASQEISGYLSWLQQKPDGTIKRLIYAASTSDSGVPKRFSGSRSGSDYSLTISSVESEDFADYYCLQYADYPYTFGGGTKLEIK
notes: Mouse hybridoma antibody; also called m8A9; mouse 8A9 antibody
B2: humanized 8A9 antibody version H7L3 (antibody, V domains shown)
VH: B1 VH with K5Q, E6Q, A13K, I20L, R68T, S76N, M82L, Q86T, D88A, M92V
VL: DIQMTQSPSSLSASVGDRVTITCRASQEISGYLSWLQQKPGKAIKRLIYAASTSDSGVPSRFSGSRSGSDYTLTISSLQPEDFADYYCLQYADYPYTFGGGTKVEIK
notes: also called H8A9-H7L3

Experiments:
[1] = molecular target: T1, peptide of amino acid residues 1-10 of IAPP (human, disulfide 2-7); assay: epitope mapping
T1 construct: also called IAPP 1-10
T1 peptide: KCNTATCATQ

[2] = molecular target: T2, human islet-amyloid polypeptide (IAPP) (human); assay: ELISA screen of hybridomas on IAPP
T2 construct: also called hIAPP; amylin
T2 peptide: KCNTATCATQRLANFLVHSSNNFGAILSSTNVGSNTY

rat IAPP = molecular target: T3, rat IAPP (rat, UniProt P12969 38-74); assay: Biacore SPR, antibody captured on anti-human CM5 chip, rat IAPP as analyte
T3 construct: also called rat islet-amyloid polypeptide
T3 peptide (looked up): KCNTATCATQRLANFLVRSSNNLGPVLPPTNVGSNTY
Protocol: The affinity of various combinations of 8A9 humanized heavy chains and humanized light chain proteins for hIAPP was analyzed on a Biacore instrument. Biacore analysis was performed by preparing an anti-human CM5 chip following the protocol provided in the kit. The 8A9 antibody was captured such that the maximum binding of rat IAPP would not exceed 20-30 RU. […] Data was blank subtracted to both an irrelevant sensor not containing 8A9 and 0 IAPP concentration to account for the dissociation of 8A9 from the anti-human capture. Data was then analyzed using a global 1:1 fit.

Binder	binding result [1]	binding result [2]	fold difference of affinity against murine 8A9 (rat IAPP) [fold]
B1	binds	binds	
B2			< 2

— patent US20150191541A1 (NEOTOPE BIOSCIENCES, published 2015)
